Reference: patent US9969998B2, “Compositions of adenosine deaminase-2 (ADA2), variants thereof and methods of using same” (Halozyme, Inc., priority 2014, dated 2018)
“Also recorded” adds a separate entry of the source. Where two headings read alike, the source gives them in different places.

Experiments:
[1] = tested on: NK/T cells; test: rHuADA2 rescue of adenosine-mediated inhibition of NK/T cell proliferation; assay type: cell-based, human
Protocol: A mixture of NK and T cells (NK/T) were prepared from healthy donor's peripheral blood mononuclear cells (PBMC). Briefly, 10×10^7 HumanPBMCs were cultured for 6-7 days in Stem cell growth medium (SCGM; Order No. 20802-0500, CellGenix, Freiburg, Germany) with 5% human serum from donors with blood type AB (human AB serum; Cat. No. 35-060-C1, Mediatech, Mannassas, Va.) in the presence of 20 ng/mL anti-CD3 eBioscience, San Diego, Calif.; Cat. No. 16-0039) and 500 IU/mL recombinant human interleukin 2 (rhIL-2; Cat. No. 200-02, PeproTech, Rocky Hill, N.J.). The cells were then cultured for an additional 2-3 weeks in SCGM in the presence of 500 IU/mL rhIL-2. NK/T cells cultured for 2-4 weeks were used in experiments.
NK/T cells (10,000 cells/well) were plated in 96 well white plates with clear bottoms in a total volume of 180 μL. The cells were treated with 20 μL rHuADA2 at concentrations resulting from 3-fold dilution series, to give a final rHuADA2 concentration of 100 nM, 30 nM, 10 nM, 3 nM, 1 nM, 0.3 nM, 0.1 nM, and 0.03 nm, and then each well also was treated with 20 μL of adenosine at 1 mM. After treatment, the NK/T cells were cultured, processed and luminescence measured as described above. The mean cell survival (%) was determined by comparison of the measured luminescence to control cells not treated with adenosine or rHuADA2.
Experiments also were performed to assess the effect of rHuADA2 to reverse adenosine-mediated inhibition of NK/T cell proliferation at various concentrations of adenosine. The experiments were conducted in a similar manner as described above, with final adenosine concentration of 1 mM, 100, 50, or 25 μM and final rHuADA2 concentration of 100 nM, 30 nM, 10 nM, 3 nM, 1 nM, 0.3 nM, 0.1 nM, and 0.03 nM.

[2] = cited from earlier work
[3] = tested on: CT26 murine primary colon carcinoma; test: CT26 syngeneic tumor model; parameters: species or system BALB/c mice; settings: mouse
Protocol: Exemplary of an animal tumor model that can be used to assess the effect of cancer treatment using ADA2 provided herein is the CT26 syngeneic tumor model. This model is created by subcutaneous injection of CT26 murine primary colon carcinoma (ATCC CRL-2638) cells into syngeneic BALB/c mice. The mice are staged until the tumor is established, then the agent used for treatment, such as any ADA2 provided herein or combination therapy including ADA2 treatment, are administered. Another example of an animal tumor model of pancreatic cancer involves the generation of tumors in animals using BxPC-3 pancreatic adenocarcinoma cells (see e.g. Von Hoff et al. (2011) J. Clin. Oncol., 29:4548-54). […]
In other examples, tumor volume can be measured using an average of measurements of tumor diameter (D) obtained by caliper or ultrasound assessments. For example, tumor volume can be determined using VisualSonics Vevo 770 high-resolution ultrasound or other similar ultrasound. The volume can be determined from the formula V=D^3×π/6 (for diameter measured using calipers) or V=D^2×d×π/6 (for diameter measured using ultrasound where d is the depth or thickness). For example, caliper measurements can be made of the tumor length (l) and width (w) and tumor volume calculated as length×width^2×0.52. […] Tumor volumes can be determined by using available software (e.g., Amira 3.1 software; Mercury Computer Systems). […]

[4] = tested on: KLN205 murine lung cancer tumor; test: Tumor growth inhibition of combination therapy with anti-PD-1, KLN205 syngeneic tumor model; assay type: in vivo, DBA/2 mice; settings: study day 14, PEG-K374D 0.3 mg/kg IV biweekly, α-PD-1 2 mg/kg IP biweekly
Protocol: KLN205 syngeneic tumor models were produced by injecting thirty-two (32) DBA/2 mice with 5×10^5 KLN205 murine lung cancer tumor cells (ATCC CRL-1453), in 0.1 mL injection volume per animal, subcutaneously. Tumor bearing mice were staged into treatment groups when the average tumor size reached approximately 100 mm^3.
For treatment, animals were randomized into 4 groups (n=8/group): 1) saline vehicle control, 2) PEG-K374D, 3) α-PD-1 antibody (Clone RMP1-14, Cat. No. BE0146; BioXCell, West Lebanon, N.H.), or 4) PEG-K374D+α-PD-1. PEG-K374D was dosed intravenously biweekly at 0.3 mg/kg, and α-PD-1 was dosed intraperitoneally biweekly at 2 mg/kg). The sequence of dosing in the combination group was PEG-K374D immediately followed by α-PD-1.
where “Tn” is the average tumor volume for the treatment group at day “n” after the final dose of PEG-K374D and α-PD-1 or control; “T0” is the average tumor volume in that treatment group at day 0, before treatment; “Cn” is the average tumor volume for the corresponding control group at day “n”; and “C0” is the average tumor volume in the control group at day 0, before treatment.

B1: ADA2: wild-type human adenosine deaminase 2, mature form SEQ ID NO:5, homodimer (protein, listed as Homo sapiens)
chain: IDETRAHLLLKEKMMRLGGRLVLNTKEELANERLMTLKIAEMKEAMRTLIFPPSMHFFQAKHLIERSQVFNILRMMPKGAALHLHDIGIVTMDWLVRNVTYRPHCHICFTPRGIMQFRFAHPTPRPSEKCSKWILLEDYRKRVQNVTEFDDSLLRNFTLVTQHPEVIYTNQNVVWSKFETIFFTISGLIHYAPVFRDYVFRSMQEFYEDNVLYMEIRARLLPVYELSGEHHDEEWSVKTYQEVAQKFVETHPEFIGIKIIYSDHRSKDVAVIAESIRMAMGLRIKFPTVVAGFDLVGHEDTGHSLHDYKEALMIPAKDGVKLPYFFHAGETDWQGTSIDRNILDALMLNTTRIGHGFALSKHPAVRTYSWKKDIPIEVCPISNQVLKLVSDLRNHPVATLMATGHPMVISSDDPAMFGAKGLSYDFYEVFMGIGGMKADLRTLKQLAMNSIKYSTLLESEKNTFMEIWKKRWDKFIADVATK
modifications: ADA2 mature protein
With B1 the “MS % (mean survival)” value ([1]; ADA2 0.03 nM, 25 μM Adenosine) was 81.7%, the “MS % (mean survival)” value ([1]; ADA2 0.03 nM, 50 μM Adenosine) was 71.2% and the “MS % (mean survival)” value ([1]; ADA2 0.03 nM, 100 μM Adenosine) was 45.9%. For the same molecule, the “MS % (mean survival)” value ([1]; ADA2 0.03 nM, 1 mM Adenosine) was 15.6%, the “MS % (mean survival)” value ([1]; ADA2 0.1 nM, 25 μM Adenosine) was 89.6% and the “MS % (mean survival)” value ([1]; ADA2 0.1 nM, 50 μM Adenosine) was 76.6%. For the same molecule, the “MS % (mean survival)” value ([1]; ADA2 0.1 nM, 100 μM Adenosine) was 43.8%, the “MS % (mean survival)” value ([1]; ADA2 0.1 nM, 1 mM Adenosine) was 16.3% and the “MS % (mean survival)” value ([1]; ADA2 0.3 nM, 25 μM Adenosine) was 90.5%. The “MS % (mean survival)” value ([1]; ADA2 0.3 nM, 50 μM Adenosine) was 64.8%, the “MS % (mean survival)” value ([1]; ADA2 0.3 nM, 100 μM Adenosine) was 57.8% and the “MS % (mean survival)” value ([1]; ADA2 0.3 nM, 1 mM Adenosine) was 18.3%. The “MS % (mean survival)” value ([1]; ADA2 1 nM, 25 μM Adenosine) was 99.3%, the “MS % (mean survival)” value ([1]; ADA2 1 nM, 50 μM Adenosine) was 80.2% and the “MS % (mean survival)” value ([1]; ADA2 1 nM, 100 μM Adenosine) was 71.7%. For the same molecule, the “MS % (mean survival)” value ([1]; ADA2 1 nM, 1 mM Adenosine) was 22.6%, the “MS % (mean survival)” value ([1]; ADA2 3 nM, 25 μM Adenosine) was 107.4% and the “MS % (mean survival)” value ([1]; ADA2 3 nM, 50 μM Adenosine) was 94%. For the same molecule, the “MS % (mean survival)” value ([1]; ADA2 3 nM, 100 μM Adenosine) was 91.6%, the “MS % (mean survival)” value ([1]; ADA2 3 nM, 1 mM Adenosine) was 41.4% and the “MS % (mean survival)” value ([1]; ADA2 10 nM, 25 μM Adenosine) was 121.2%. For the same molecule, the “MS % (mean survival)” value ([1]; ADA2 10 nM, 50 μM Adenosine) was 105.9%, the “MS % (mean survival)” value ([1]; ADA2 10 nM, 100 μM Adenosine) was 108.3% and the “MS % (mean survival)” value ([1]; ADA2 10 nM, 1 mM Adenosine) was 67.1%. The “MS % (mean survival)” value ([1]; ADA2 30 nM, 25 μM Adenosine) was 117.2%, the “MS % (mean survival)” value ([1]; ADA2 30 nM, 50 μM Adenosine) was 114.7% and the “MS % (mean survival)” value ([1]; ADA2 30 nM, 100 μM Adenosine) was 114.4%. The “MS % (mean survival)” value ([1]; ADA2 30 nM, 1 mM Adenosine) was 79.1%, the “MS % (mean survival)” value ([1]; ADA2 100 nM, 25 μM Adenosine) was 120.6% and the “MS % (mean survival)” value ([1]; ADA2 100 nM, 50 μM Adenosine) was 116.9%. For the same molecule, the “MS % (mean survival)” value ([1]; ADA2 100 nM, 100 μM Adenosine) was 109%, the “MS % (mean survival)” value ([1]; ADA2 100 nM, 1 mM Adenosine) was 96.3% and the Km ([2]; for adenosine, wild-type enzyme in humans, read-out: Km) was about 2 mM. The Km ([2]; read-out: Km for adenosine) was about 2.25 mM and the “tumor growth in vivo” value [3] was “reduce tumor growth”.

B2: PEG-K374D: rHuADA2-K374D (SEQ ID NO:20) PEGylated on surface exposed lysines with linear PEG-20K (conjugate)
chain: IDETRAHLLLKEKMMRLGGRLVLNTKEELANERLMTLKIAEMKEAMRTLIFPPSMHFFQAKHLIERSQVFNILRMMPKGAALHLHDIGIVTMDWLVRNVTYRPHCHICFTPRGIMQFRFAHPTPRPSEKCSKWILLEDYRKRVQNVTEFDDSLLRNFTLVTQHPEVIYTNQNVVWSKFETIFFTISGLIHYAPVFRDYVFRSMQEFYEDNVLYMEIRARLLPVYELSGEHHDEEWSVKTYQEVAQKFVETHPEFIGIKIIYSDHRSKDVAVIAESIRMAMGLRIKFPTVVAGFDLVGHEDTGHSLHDYKEALMIPAKDGVKLPYFFHAGETDWQGTSIDRNILDALMLNTTRIGHGFALSKHPAVRTYSWDKDIPIEVCPISNQVLKLVSDLRNHPVATLMATGHPMVISSDDPAMFGAKGLSYDFYEVFMGIGGMKADLRTLKQLAMNSIKYSTLLESEKNTFMEIWKKRWDKFIADVATK
modifications: linear PEG-20K on surface lysines; human ADA2 K371D, mature numbering
In the case of B2, the “Average Tumor Volume” value [4] is reported as 264.56 mm^3, the “Tumor Growth Inhibition” value [4] is reported as “inhibited tumor growth; also recorded: greater tumor growth inhibition than either α-PD-1 treatment alone or the PEG-K374D+α-PD-1 combination therapy” and the “Tumor Growth Inhibition” value ([4]; vs vehicle) is reported as 78%.
